In this assay the target is transmembrane tumor necrosis factor (tmTNF) knock-in mutant, on bone-marrow-derived macrophages of 3TG mice (TNFR1-/-, TNFR2-/-, tmTNF KI/KI) (mouse (endogenous in BMDMs)) (UniProt P06804).

“etanercept, a soluble form of TNFR2 coupled to human Fc domain (from UniProt P20333 23-257) (Fc fusion)” displayed an internalization score of ETA-488 in 3TG BMDMs at 20 min, imaging cytometry of 0.73.

For the origin of these results see PMC8050384.
